Measured values published in the supplement of paper PMC9112550, “Optimization of the antimicrobial peptide Bac7 by deep mutational scanning” (BMC Biology, 2022).
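Also: peptides expressed intracellularly from a pBAD plasmid library in pooled LB shake-flask culture, induced with 0.3% L-arabinose, DNA abundance read by NGS, three biological replicates, DESeq2 with apeglm shrinkage.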

The sequences below were run on Escherichia coli TOP10 (assay: shrunken log2 fold change of peptide-encoding DNA abundance (4.5 h post-induction vs induction); higher = less antimicrobial activity (less host growth inhibition)). Conditions: time post-induction: 4.5 h; library: site-saturation at positions 5, 18, 19, 20.
For RRIRMRPPRLPRPRPRPFYYPRP, the “shrunken log2 fold change” value was -0.527. With RRIRGRPPRLPRPRPRPSYMPRP the “shrunken log2 fold change” value was -0.0696. In the case of RRIRSRPPRLPRPRPRPTRYPRP, the “shrunken log2 fold change” value is reported as -0.198. With RRIRVRPPRLPRPRPRPTCAPRP the “shrunken log2 fold change” value was 0.579. With RRIRLRPPRLPRPRPRPCGKPRP the “shrunken log2 fold change” value was -0.196. For RRIRSRPPRLPRPRPRPGHYPRP, the “shrunken log2 fold change” value was -0.645. For RRIRGRPPRLPRPRPRPFFVPRP, the “shrunken log2 fold change” value was 0.246. In the case of RRIRSRPPRLPRPRPRPSCEPRP, the “shrunken log2 fold change” value is reported as -0.0887. With RRIRERPPRLPRPRPRPLHQPRP the “shrunken log2 fold change” value was -0.0505. For RRIRWRPPRLPRPRPRPCEYPRP, the “shrunken log2 fold change” value was -0.379. For RRIRKRPPRLPRPRPRPAFFPRP, the “shrunken log2 fold change” value was 0.411. RRIRYRPPRLPRPRPRPRQDPRP was tested, and the “shrunken log2 fold change” value was -0.216. In the case of RRIRRRPPRLPRPRPRPQWQPRP, the “shrunken log2 fold change” value is reported as 0.435. With RRIRMRPPRLPRPRPRPYNGPRP the “shrunken log2 fold change” value was -0.289. In the case of RRIRERPPRLPRPRPRPTRPPRP, the “shrunken log2 fold change” value is reported as 0.461. RRIRMRPPRLPRPRPRPAFTPRP was tested, and the “shrunken log2 fold change” value was 0.251. In the case of RRIRHRPPRLPRPRPRPRFWPRP, the “shrunken log2 fold change” value is reported as 0.112. RRIRWRPPRLPRPRPRPHKCPRP was tested, and the “shrunken log2 fold change” value was 0.188. RRIRTRPPRLPRPRPRPHIMPRP was tested, and the “shrunken log2 fold change” value was -0.738. For RRIRPRPPRLPRPRPRPLCQPRP, the “shrunken log2 fold change” value was -0.116. For RRIRIRPPRLPRPRPRPCQLPRP, the “shrunken log2 fold change” value was -0.812. In the case of RRIRQRPPRLPRPRPRPLDEPRP, the “shrunken log2 fold change” value is reported as 0.0698. RRIRKRPPRLPRPRPRPYLVPRP was tested, and the “shrunken log2 fold change” value was -0.634. For RRIRKRPPRLPRPRPRPAIFPRP, the “shrunken log2 fold change” value was 0.233. For RRIRARPPRLPRPRPRPGGEPRP, the “shrunken log2 fold change” value was 0.694. In the case of RRIRDRPPRLPRPRPRPMQMPRP, the “shrunken log2 fold change” value is reported as 0.467. With RRIRWRPPRLPRPRPRPDKWPRP the “shrunken log2 fold change” value was -0.161. RRIRYRPPRLPRPRPRPVYTPRP was tested, and the “shrunken log2 fold change” value was -0.499. In the case of RRIRIRPPRLPRPRPRPDAPPRP, the “shrunken log2 fold change” value is reported as 0.14. RRIRARPPRLPRPRPRPNDWPRP was tested, and the “shrunken log2 fold change” value was 0.466. With RRIRFRPPRLPRPRPRPITIPRP the “shrunken log2 fold change” value was -0.195. RRIRPRPPRLPRPRPRPQWKPRP was tested, and the “shrunken log2 fold change” value was 0.0366. For RRIRMRPPRLPRPRPRPWYRPRP, the “shrunken log2 fold change” value was -0.277. RRIRNRPPRLPRPRPRPLCFPRP was tested, and the “shrunken log2 fold change” value was -0.461. With RRIRWRPPRLPRPRPRPYFYPRP the “shrunken log2 fold change” value was -0.679. In the case of RRIRIRPPRLPRPRPRPGDIPRP, the “shrunken log2 fold change” value is reported as -0.0899. With RRIRNRPPRLPRPRPRPSKPPRP the “shrunken log2 fold change” value was -0.399. RRIRCRPPRLPRPRPRPCIPPRP was tested, and the “shrunken log2 fold change” value was -0.01. With RRIRHRPPRLPRPRPRPKFRPRP the “shrunken log2 fold change” value was -0.317. In the case of RRIRIRPPRLPRPRPRPSRFPRP, the “shrunken log2 fold change” value is reported as -0.278. RRIRTRPPRLPRPRPRPFWKPRP was tested, and the “shrunken log2 fold change” value was 0.0184. For RRIRERPPRLPRPRPRPIDFPRP, the “shrunken log2 fold change” value was 0.136. For RRIRQRPPRLPRPRPRPQVQPRP, the “shrunken log2 fold change” value was -0.00173. RRIRQRPPRLPRPRPRPIFIPRP was tested, and the “shrunken log2 fold change” value was -0.472. RRIRERPPRLPRPRPRPSTSPRP was tested, and the “shrunken log2 fold change” value was -0.145. RRIRWRPPRLPRPRPRPCKDPRP was tested, and the “shrunken log2 fold change” value was -0.381. RRIRMRPPRLPRPRPRPRLYPRP was tested, and the “shrunken log2 fold change” value was 0.212. For RRIRIRPPRLPRPRPRPGESPRP, the “shrunken log2 fold change” value was -0.0125. RRIRWRPPRLPRPRPRPEPAPRP was tested, and the “shrunken log2 fold change” value was 1.18. With RRIRIRPPRLPRPRPRPAIRPRP the “shrunken log2 fold change” value was -0.161. With RRIRNRPPRLPRPRPRPAEIPRP the “shrunken log2 fold change” value was -0.107. RRIRIRPPRLPRPRPRPETNPRP was tested, and the “shrunken log2 fold change” value was -0.264. For RRIRSRPPRLPRPRPRPTIKPRP, the “shrunken log2 fold change” value was -0.29. With RRIRHRPPRLPRPRPRPCILPRP the “shrunken log2 fold change” value was -0.134. RRIRDRPPRLPRPRPRPSYMPRP was tested, and the “shrunken log2 fold change” value was -0.111. With RRIRRRPPRLPRPRPRPTDAPRP the “shrunken log2 fold change” value was 0.198. For RRIRFRPPRLPRPRPRPHLEPRP, the “shrunken log2 fold change” value was -0.425. For RRIRARPPRLPRPRPRPDADPRP, the “shrunken log2 fold change” value was 1.63. For RRIRERPPRLPRPRPRPFNHPRP, the “shrunken log2 fold change” value was -1.01. With RRIRSRPPRLPRPRPRPAQRPRP the “shrunken log2 fold change” value was 0.105. For RRIRHRPPRLPRPRPRPVYGPRP, the “shrunken log2 fold change” value was -0.528. For RRIRSRPPRLPRPRPRPPCLPRP, the “shrunken log2 fold change” value was -0.105. In the case of RRIRQRPPRLPRPRPRPTEGPRP, the “shrunken log2 fold change” value is reported as -0.0332. RRIRYRPPRLPRPRPRPANCPRP was tested, and the “shrunken log2 fold change” value was -0.225. With RRIRSRPPRLPRPRPRPSHNPRP the “shrunken log2 fold change” value was -0.784. In the case of RRIRYRPPRLPRPRPRPAYNPRP, the “shrunken log2 fold change” value is reported as -0.638. With RRIRFRPPRLPRPRPRPYNSPRP the “shrunken log2 fold change” value was -0.136. RRIRLRPPRLPRPRPRPCKFPRP was tested, and the “shrunken log2 fold change” value was -0.463. For RRIRERPPRLPRPRPRPAPGPRP, the “shrunken log2 fold change” value was 0.325. For RRIRTRPPRLPRPRPRPAWDPRP, the “shrunken log2 fold change” value was 0.454. In the case of RRIRQRPPRLPRPRPRPSFEPRP, the “shrunken log2 fold change” value is reported as -0.213. With RRIRARPPRLPRPRPRPTLNPRP the “shrunken log2 fold change” value was 0.496. In the case of RRIRIRPPRLPRPRPRPKFSPRP, the “shrunken log2 fold change” value is reported as -0.244. RRIRFRPPRLPRPRPRPFSEPRP was tested, and the “shrunken log2 fold change” value was -0.0573. With RRIRYRPPRLPRPRPRPYYTPRP the “shrunken log2 fold change” value was -0.0958.
